Measurements: the supplement of paper PMC7877785
± gives the uncertainty stated by the source.

Test: self-splicing fitness, log relative to wild type (ln ratio); higher = more splicing; Tetrahymena group I intron in knt gene, E. coli kanamycin selection, DiMSum; sequences stand for … in CUCUCU…GGAGGGAAAAGUUAUCAGGCAUGCACCUGGUAGCUAGUCUUUAAACCAAUAGAUUGCAUCGGUUUAAAAGGCAAGACCGUCAAAUUGCGGGAAAGGGGUCAACAGCCGUUCAGUACCAAGUCUCAGGGGAAACUUUGAGAUGGCCUUGCAAAGGGUAUGGUAAUAAGCUGACGGACAUGGUCCUAACCACGCAGCCAAGUCCUAAGUCAACAGAUCUUCUGUUGAUAUGGAUGCAGUUCACAGACUAAAUGUCGGUCGGGGAAGAUGUAUUCUUCUCAUAAGAUAUAGUCGGACCUCUCCUUAAUGGGAGCUAGCGGAUGAAGUGAUGCAACACUGGAGCCGCUGGGAACUAAUUUGUAUGCGAAAGUAUAUUGAUUAGUUUUGGAGUACUCGUGGUCG
How it was run: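 Library with all eight P1ex-region intron nucleotides randomised, intron inside the knt kanamycin-resistance gene on pET-22b(+), in E. coli BL21(DE3). Cells grew overnight at 37°C or 30°C on LB agar with or without 25 μg/mL kanamycin (plus 100 μg/mL carbenicillin, 50 μM IPTG, 0.2% rhamnose), in six replicate transformations. Pooled colonies were amplicon-sequenced on Illumina HiSeq 2500. DiMSum fitness is the error-weighted combination of wild-type-normalised replicate fold changes, kanamycin versus none.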

Sequence | self-splicing fitness (ln) (30 °C) | self-splicing fitness (ln) (37 °C)
CUCAAGCAAUAUUACGCAUA | -3.29 ± 0.22 | -3.07 ± 0.34
CUCAAGCAAUAUUACGCCCC | – | -1.28 ± 0.5
CUCAAGCAAUAUUACGCGAU | -2.3 ± 0.11 | -0.996 ± 0.11
CUCAAGCAAUAUUACGCGGU | -3.45 ± 0.19 | -1.07 ± 0.12
CUCAAGCAAUAUUACGCUUA | -2.62 ± 0.27 | -3.26 ± 0.37
CUCAAGCAAUAUUACGCUUG | -3.58 ± 0.18 | -2.38 ± 0.23
CUCAAGCAAUAUUACGGGAG | -2.91 ± 0.17 | -1.77 ± 0.18
CUCAAGCAAUAUUACGGUUG | -3.38 ± 0.19 | -2.56 ± 0.22
CUCAAGCAAUAUUACGUAGA | -3.23 ± 0.1 | -1.53 ± 0.11
CUCAAGCAAUAUUACGUGAA | -0.683 ± 0.077 | -0.629 ± 0.12
CUCAAGCAAUAUUACGUGCG | -2.81 ± 0.14 | -0.8 ± 0.12
CUCAAGCAAUAUUACGUGGA | -3.76 ± 0.18 | -1.19 ± 0.084
CUCAAGCAAUAUUACGUUGG | -2.93 ± 0.12 | -1.5 ± 0.13
CUCCAGCAAUAUUACGACAA | -2.27 ± 0.23 | -2.29 ± 0.31
CUCCAGCAAUAUUACGACAU | -4.008 ± 0.026 | -2.95 ± 0.039
CUCCAGCAAUAUUACGACUG | -3.12 ± 0.14 | -2.83 ± 0.16
CUCCAGCAAUAUUACGAGGC | -3.02 ± 0.3 | –
CUCCAGCAAUAUUACGCACA | -1.38 ± 0.15 | -2.29 ± 0.27
CUCCAGCAAUAUUACGCACC | – | -2.4 ± 0.45
CUCCAGCAAUAUUACGCCAC | -2.7 ± 0.35 | –

Sequence | self-splicing fitness (ln) (30 °C) | self-splicing fitness (ln) (37 °C)
CUCCAGCAAUAUUACGCCAG | -3.19 ± 0.37 | -2.08 ± 0.46
CUCCAGCAAUAUUACGCCUU | -2.33 ± 0.18 | -2.29 ± 0.27
CUCCAGCAAUAUUACGCGGA | -3.39 ± 0.2 | -3.02 ± 0.22
CUCCAGCAAUAUUACGCGGG | -3.86 ± 0.24 | -1.82 ± 0.23
CUCCAGCAAUAUUACGCGUG | -2.19 ± 0.075 | -1.29 ± 0.085
CUCCAGCAAUAUUACGCUAU | -3.89 ± 0.33 | -2.44 ± 0.22
CUCCAGCAAUAUUACGCUGA | -2.59 ± 0.18 | -2.65 ± 0.22
CUCCAGCAAUAUUACGGACU | -2.61 ± 0.24 | -2.07 ± 0.33
CUCCAGCAAUAUUACGGCCU | -3.5 ± 0.2 | -1.63 ± 0.24
CUCCAGCAAUAUUACGGGUU | -3.83 ± 0.2 | -2.91 ± 0.2
CUCCAGCAAUAUUACGGUAA | -1.4 ± 0.13 | -1.8 ± 0.15
CUCCAGCAAUAUUACGUAAG | -0.512 ± 0.053 | 0.0902 ± 0.076
CUCCAGCAAUAUUACGUAUG | -2.03 ± 0.077 | -1.8 ± 0.087
CUCCAGCAAUAUUACGUGAA | -1.24 ± 0.065 | -0.328 ± 0.09
CUCCAGCAAUAUUACGUGCG | -3.63 ± 0.27 | -1.84 ± 0.18
CUCCAGCAAUAUUACGUGUU | -3.62 ± 0.13 | -2.31 ± 0.11
CUCCAGCAAUAUUACGUUGA | -2.56 ± 0.18 | -2.87 ± 0.19
CUCCAGCAAUAUUACGUUUC | -3.65 ± 0.28 | -3.12 ± 0.3
CUCGAGCAAUAUUACGACUU | -3.19 ± 0.19 | -1.73 ± 0.23
